Measurements reported in PMC12137620, “Targeting the MDK/c‐Myc complex to overcome temozolomide resistance in glioma” (Clinical and Translational Medicine, 2025).

How the values were obtained:
[1] = target: T1, His-tagged c-Myc (human, UniProt P01106 1-454, labelled with the NT-647-NHS dye); test: MST; Monolith NT.115; NT-647-NHS-labelled c-Myc held constant (416 nM stock mixed 1:1), MDK in 16 serial dilutions; PBSP (1x PBS + 0.1% Pluronic F-127); standard treated capillaries; conditions: both partners purified
T1 construct: c-Myc; plasmid constructed by Tsingke Biotechnology Co., Ltd. (Beijing); also called recombinant c-Myc protein; source: bacterial BL21 cells, purified (Ni-NTA agarose)
T1 sequence (P01106 whole entry): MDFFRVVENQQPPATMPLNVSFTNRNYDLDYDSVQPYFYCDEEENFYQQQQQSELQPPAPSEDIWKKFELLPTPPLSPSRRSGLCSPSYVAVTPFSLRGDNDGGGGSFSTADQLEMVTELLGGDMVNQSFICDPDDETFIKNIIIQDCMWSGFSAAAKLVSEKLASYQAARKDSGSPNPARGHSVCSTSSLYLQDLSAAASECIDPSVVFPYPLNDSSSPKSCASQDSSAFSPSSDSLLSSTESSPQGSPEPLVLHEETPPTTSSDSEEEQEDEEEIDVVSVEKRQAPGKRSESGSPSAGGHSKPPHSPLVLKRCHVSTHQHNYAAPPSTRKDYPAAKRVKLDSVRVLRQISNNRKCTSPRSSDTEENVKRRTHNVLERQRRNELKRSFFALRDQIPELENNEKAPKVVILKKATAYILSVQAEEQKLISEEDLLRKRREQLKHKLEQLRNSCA

[2] = target: T1, His-tagged c-Myc; test: MST; as the MST of MDK and c-Myc, after the addition of 1 µM ACT001; conditions: both partners purified

B1: Recombinant human MDK protein (natural protein, UniProt P21741 21-143, looked up)
chain: VAKKKDKVKKGGPGSECAEWAWGPCTPSSKDCGVGFREGTCGAQTQRIRCRVPCNWKKEFGADCKYKFENWGACDGGTGTKVRQGTLKKARYNAQCQETIRVTKPCTPKTKAKAKAKKGKGKD
notes: recombinant human midkine, bought; also called midkine; source: bought: Zeye Biotechnology Corporation (ZY631H02P, Shanghai)
Kd [1]: 18.8 nM
Kd [2]: 1540 nM
